Assay results: PMC8032705, “Identification and characterization of piperine synthase from black pepper, Piper nigrum L” (Communications Biology, 2021)

B1: piperamide synthase (PipBAHD1) (Piper nigrum) (protein)
chain: MASSQLEFNVERKQPELLGPAEPTPYELKELSDIDDQDGVRLFLTAIFIYPPPTKTSMPTRKTDPASDIRRGLSKAMVYYYPFAGRIREGPNRKLSVDCTGEGIVFCEADADIRLDGLGDVEVLRPPYPFIDKMTLGEGSAILGAPLVYVQVTRFACGGFIITGRFNHVMADAPGFTMFMKAAADLARGATVPMPLPVWERERYRSRVPPRVTFAHHEYMHVDDPPPRPTSEPWSLHSAFFTKADVATLRAQLPADLRKAATSFDIITACMWRCRVSALQYGPDEVVRLIVAVNSRTKFDPPLTGYYGNGLMLPAAVTEAGKLVGSDLGYAVELVREAKGKVTEEYVRSAADFLVLNGRVHFVVSNTFLVSDLRRLIDLANMDWGWGKAVSGGPVDVGENVISFLATSKNSAGEEGAVVPFCLPDSALGRFTSEVKKLVCFRPLENAAASNPDHGYMSRM
notes: full-length cDNA from immature fruits, N-terminal His10 tag (pET-16b), E. coli LEMO21, IMAC
B2: piperine synthase (PipBAHD2) (Piper nigrum) (protein)
chain: MAPSSQLEFNVVRKQPELLPPAEPTPFEWKELSDIDDQDGLRLHISGFFIYPPSTMSNVGRDNVARDIRLGLSKAMVFYYPLAGRIREGPNRKLSVECTGEGIMYCEADADVRLEQFGDIGALSMPFPFMDKVMFETVDDGILGTPLMYFQSTRFICGGIVIAGCYNHAIADGLGFYMFMAAAAQLARGAASPTPLPVWQRERLLSRVPPRVTFIHHEYIHDTPKTETANPLDNEPWPLHSIFFTRVDVAALRAQLPGHLRKSATSFEIISACLWRCRTAALRFAPDELSRLIIAVNARTKFGPPLPQGYYGNSIMLPMVVSEAGKLVLSGLGYAVELVIEAKGKVTEEYVKSVADYLVLNGRPHYVVTNTYLVSDLRQLVEMSKFDWGWGKPAYVGPADVGENAISFLATLKNGEEEGVVVPIRLPESAVGRFKSEVSKMVSFGCLEDVKPNRDGYLSRM
notes: as for B1

Experiments:
Assay type in all cases: biochemical, Piper nigrum
[1] = substrate: C1CCNCC1; experiment: HPLC-UV/Vis and LC-MS of piperine isomer formation; conditions: co-substrate piperoyl-CoA, pH 8.0, 30 mM Tris/HCl, 1 mM DTT
From the text: (§1) HPLC-UV/Vis and LC-MS of piperine isomer formation on piperamide synthase (PipBAHD1)

[2] = substrate: CC(C)(COP(=O)(O)OP(=O)(O)OC[C@H]1O[C@@H](n2cnc3c(N)ncnc32)[C@H](O)[C@@H]1OP(=O)(O)O)[C@@H](O)C(=O)NCCC(=O)NCCSC(=O)/C=C/C=C/c1ccc2c(c1)OCO2; experiment: HPLC-UV/Vis and LC-MS of piperine isomer formation; conditions: co-substrate piperidine, pH 8.0, 30 mM Tris/HCl, 1 mM DTT
From the text: as §1

[3] = substrate: C1CCNCC1; experiment: HPLC-UV/Vis and LC-MS of piperine (plus isomers) formation; conditions: co-substrate piperoyl-CoA, pH 8.0, 30 mM Tris/HCl, 1 mM DTT
From the text: (§2) HPLC-UV/Vis and LC-MS of piperine (plus isomers) formation on piperine synthase (PipBAHD2)

[4] = substrate: CC(C)(COP(=O)(O)OP(=O)(O)OC[C@H]1O[C@@H](n2cnc3c(N)ncnc32)[C@H](O)[C@@H]1OP(=O)(O)O)[C@@H](O)C(=O)NCCC(=O)NCCSC(=O)/C=C/C=C/c1ccc2c(c1)OCO2; experiment: as above; conditions: co-substrate piperidine, pH 8.0, 30 mM Tris/HCl, 1 mM DTT
From the text: as §2

Protein | Km [1] [mM] | kcat [1] [s⁻¹] | kcat/Km [1] [M⁻¹ s⁻¹] | Km [2] [mM] | kcat [2] [s⁻¹] | kcat/Km [2] [M⁻¹ s⁻¹] | Km [3] [mM] | Km [4] [mM] | kcat [4] [s⁻¹] | kcat/Km [4] [M⁻¹ s⁻¹]
B1 | 8.69 ± 3.6 | 0.27 ± 0.02 | 31.1 | 0.196 ± 0.009 | 0.35 ± 0.01 | 1790 | – | – | – | –
B2 | – | – | – | – | – | – | 7.6 ± 0.5 | 0.342 ± 0.060 | 1.01 ± 0.12 | 2950
